Where “and” joins values, the source holds several entries; their conditions need not be identical. Identical values can stand only once.
What was measured:
[1] = target: T1, human LAG3 expressed on Jurkat T cell line (human, UniProt P18627 23-525); experiment: cell-based or functional assay
T1 sequence (looked up): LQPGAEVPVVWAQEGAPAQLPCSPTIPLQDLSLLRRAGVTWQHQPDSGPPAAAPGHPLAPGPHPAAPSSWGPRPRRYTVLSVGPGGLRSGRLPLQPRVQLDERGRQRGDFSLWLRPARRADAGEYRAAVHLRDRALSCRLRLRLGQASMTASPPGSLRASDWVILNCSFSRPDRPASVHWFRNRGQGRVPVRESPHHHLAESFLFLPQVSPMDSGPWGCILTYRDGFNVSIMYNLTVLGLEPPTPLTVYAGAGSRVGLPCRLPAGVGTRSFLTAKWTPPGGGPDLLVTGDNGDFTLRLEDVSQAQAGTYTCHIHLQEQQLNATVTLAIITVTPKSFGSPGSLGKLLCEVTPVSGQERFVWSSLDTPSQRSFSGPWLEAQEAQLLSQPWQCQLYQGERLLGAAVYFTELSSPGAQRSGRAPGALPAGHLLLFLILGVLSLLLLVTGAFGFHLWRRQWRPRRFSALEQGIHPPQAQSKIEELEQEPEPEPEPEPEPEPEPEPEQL

Tag1-LAG3 [2] = experiment: HTRF LAG3/MHC-II; peptide log M -8.81648
Tag1-LAG3 [3] = experiment: HTRF LAG3/MHC-II; peptide log M -5.20412
Tag1-LAG3 [4] = experiment: HTRF LAG3/MHC-II; peptide log M -9.41854
Tag1-LAG3 [5] = experiment: HTRF LAG3/MHC-II; peptide log M -6.40824
Tag1-LAG3 [6] = experiment: HTRF LAG3/MHC-II; peptide log M -10.0206
Tag1-LAG3 [7] = experiment: HTRF LAG3/MHC-II; peptide log M -8.21442
Tag1-LAG3 [8] = experiment: HTRF LAG3/MHC-II; peptide log M -4
Tag1-LAG3 [9] = experiment: HTRF LAG3/MHC-II; peptide log M -7.0103
Tag1-LAG3 [10] = experiment: HTRF LAG3/MHC-II; peptide log M -4.60206
Tag1-LAG3 [11] = experiment: HTRF LAG3/MHC-II; peptide log M -7.61236
Tag1-LAG3 [12] = experiment: HTRF LAG3/MHC-II; peptide log M -10.6227
Tag1-LAG3 [13] = experiment: HTRF LAG3/MHC-II; peptide log M -5.80618

Binder | fold inhibition (fold increase in luciferase activity, RLUs at 100 µM against 0.64 µM) [1] | HTRF ratio (Tag1-LAG3 [2]) | HTRF ratio (Tag1-LAG3 [3]) | HTRF ratio (Tag1-LAG3 [4]) | HTRF ratio (Tag1-LAG3 [5]) | HTRF ratio (Tag1-LAG3 [6]) | HTRF ratio (Tag1-LAG3 [7]) | HTRF ratio (Tag1-LAG3 [8]) | HTRF ratio (Tag1-LAG3 [9]) | HTRF ratio (Tag1-LAG3 [10]) | HTRF ratio (Tag1-LAG3 [11]) | HTRF ratio (Tag1-LAG3 [12]) | HTRF ratio (Tag1-LAG3 [13])
HIQNWSYWLNQDMMNQQVWKS [LAG3-56] | ~2.2 fold | – | – | – | – | – | – | – | – | – | – | – | –
ISQAVHAAHAEINEAGR [ovalbumin (OVA) peptide] | – | 8720 and 8640 and 8680 | 8620 and 8580 and 9020 | 8400 and 8790 and 8620 | 8630 and 9280 and 9190 | 8990 and 8460 and 8360 | 8620 and 8990 and 9220 | 8490 and 8910 and 7150 | 8970 and 8380 and 8650 | 8470 and 8680 and 8450 | 8780 and 8570 and 9020 | 9090 and 8890 and 8630 | 8830 and 9370 and 9180
SAPWEPLHWPEDWWQGTGEW [LAG3-11] | ~2.8 fold | – | – | – | – | – | – | – | – | – | – | – | –
